Test results as given in publication PMC5576363.
Positions count from the first letter of the chain named.

Columns and labels:
LbuC2c2-dHEPN2 = target: T1, LbuC2c2-dHEPN2 (Leptotrichia buccalis, UniProt C7NBY4 1-1159, R1048A;H1053A); assay: filter binding
T1 sequence: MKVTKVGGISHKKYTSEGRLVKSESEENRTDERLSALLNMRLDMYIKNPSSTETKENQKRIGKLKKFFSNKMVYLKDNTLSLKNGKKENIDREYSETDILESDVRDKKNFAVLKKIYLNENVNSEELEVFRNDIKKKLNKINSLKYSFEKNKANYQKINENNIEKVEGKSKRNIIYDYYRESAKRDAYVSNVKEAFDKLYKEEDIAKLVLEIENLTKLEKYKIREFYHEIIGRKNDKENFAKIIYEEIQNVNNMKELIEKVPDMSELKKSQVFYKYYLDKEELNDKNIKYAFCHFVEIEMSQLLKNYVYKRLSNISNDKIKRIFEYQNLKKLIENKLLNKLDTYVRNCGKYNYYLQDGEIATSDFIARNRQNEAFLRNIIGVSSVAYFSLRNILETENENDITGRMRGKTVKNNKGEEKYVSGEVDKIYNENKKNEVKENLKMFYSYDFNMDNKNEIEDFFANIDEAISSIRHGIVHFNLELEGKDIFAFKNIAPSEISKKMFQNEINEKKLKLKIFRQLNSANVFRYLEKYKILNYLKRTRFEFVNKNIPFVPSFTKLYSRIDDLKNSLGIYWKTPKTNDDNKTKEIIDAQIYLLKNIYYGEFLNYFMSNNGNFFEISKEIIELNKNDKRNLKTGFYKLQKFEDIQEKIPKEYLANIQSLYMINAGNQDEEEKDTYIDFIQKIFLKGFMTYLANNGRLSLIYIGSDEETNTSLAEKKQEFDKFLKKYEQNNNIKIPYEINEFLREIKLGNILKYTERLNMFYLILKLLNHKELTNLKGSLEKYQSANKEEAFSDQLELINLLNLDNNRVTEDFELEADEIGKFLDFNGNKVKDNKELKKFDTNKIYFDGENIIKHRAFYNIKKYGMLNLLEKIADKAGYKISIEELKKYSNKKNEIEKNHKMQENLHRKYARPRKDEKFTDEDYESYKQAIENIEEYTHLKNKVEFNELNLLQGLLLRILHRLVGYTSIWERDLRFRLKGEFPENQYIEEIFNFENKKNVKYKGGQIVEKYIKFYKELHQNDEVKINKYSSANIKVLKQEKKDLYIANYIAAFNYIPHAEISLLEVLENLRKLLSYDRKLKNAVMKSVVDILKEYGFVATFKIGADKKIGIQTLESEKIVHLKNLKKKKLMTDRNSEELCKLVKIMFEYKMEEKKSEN

LbuC2c2-dHEPN1 = target: T2, LbuC2c2-dHEPN1 (Leptotrichia buccalis, UniProt C7NBY4 1-1159, R472A;H477A); assay: filter binding
T2 sequence: T1 sequence with R472A, H477A, A1048R, A1053H

LbuC2c2-dHEPN1/dHEPN2 [1] = target: T3, LbuC2c2-dHEPN1/dHEPN2 (Leptotrichia buccalis, UniProt C7NBY4 1-1159, R472A;H477A;R1048A;H1053A); assay: filter binding
T3 sequence: T1 sequence with R472A, H477A

LbuC2c2-dHEPN1/dHEPN2 [2] = target: T3, LbuC2c2-dHEPN1/dHEPN2; assay: EMSA
LbuC2c2-R1079A = target: T4, LbuC2c2-R1079A (Leptotrichia buccalis, UniProt C7NBY4 1-1159, R1079A); assay: filter binding
T4 sequence: T1 sequence with A1048R, A1053H, R1079A

B1: mature crRNA-A_GG (crLbu_A_GG_AES432) (structured_RNA)
RNA: GGCCACCCCAAAAAUGAAGGGGACUAAAACAGGGGCAGAGAUGAUGACCCU
Question: For B1, which Kd (LbuC2c2-dHEPN2) is on record?
Answer: Its Kd is 11.5 ± 2.5 nM.

Question: What about the Kd (LbuC2c2-dHEPN1) of the same binder?
Answer: The Kd was 15.2 ± 3.2 nM.

Question: And the Kd (LbuC2c2-dHEPN1/dHEPN2 [1])?
Answer: Its Kd is 43.3 ± 11.5 nM.

B2: crRNA-A_GG guide + on-target A ssRNA (mixed)
RNA 1: B1 RNA
RNA 2: GGCACACCCGCAGGGGGGAGCCAAAAGGGUCAUCAUCUCUGCCCCCACAGCAGAAGCCCC
Question: With B2 as the binder, how does the Kd (LbuC2c2-dHEPN1/dHEPN2 [2]) read?
Answer: The Kd was 1.62 ± 0.43 nM.

B3: mature crRNA-A_GA (crLbu_A_mature_GA_SCK340) (structured_RNA)
RNA: B1 RNA with G2A
Question: How did the Kd (LbuC2c2-R1079A) turn out when B3 was run?
Answer: Its Kd is 2.52 ± 0.5 nM.
